These results are taken from the supplement of paper PMC10567573.

B1: EPB41L3 (parent)
chain: GSKFRYSGRTQAQTRRASALIDRP
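Note: lentivirally expressed fusions sorted by FACS into six bins by GFP to DsRed ratio, PSI derived from sequencing read proportions per bin multiplied by bin number.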

In the data set the parent is B1. The data set can be described thus: protein stability index of a GFP-peptide fusion (GPS, HEK-293T) (PSI 1-6); higher = more stable. To be noted: c terminus: a fixed tail appended.
Regarding GSKFRTSGRTQAQTRRASALIDRP [Y6T], the protein stability index is 4.35.
Then GSKFRQSGRTQAQTRRASALIDRP [Y6Q], with 3.71.
As for GSKFRGSGRTQAQTRRASALIDRP [Y6G], the protein stability index stood at 3.91.
Consider GSKFRSSGRTQAQTRRASALIDRP [Y6S], for which the protein stability index turned out to be 3.85.
For GSKFRNSGRTQAQTRRASALIDRP [Y6N], the protein stability index worked out at 3.67.
For GSKFRASGRTQAQTRRASALIDRP [Y6A] the value was 3.85; for GSKFRPSGRTQAQTRRASALIDRP [Y6P], 3.68.
As to GSKFRMSGRTQAQTRRASALIDRP [Y6M], the protein stability index stood at 4.64.
Then GSKFRVSGRTQAQTRRASALIDRP [Y6V], with 3.86; and GSKFRISGRTQAQTRRASALIDRP [Y6I], with 3.62; and GSKFRHSGRTQAQTRRASALIDRP [Y6H], with 3.22.
With GSKFRYGGRTQAQTRRASALIDRP [S7G], the protein stability index amounted to 3.85.
Consider GSKFRYWGRTQAQTRRASALIDRP [S7W], for which the protein stability index stood at 2.4.
Then GSKFRYTGRTQAQTRRASALIDRP [S7T], with 2.95.
Then GSKFRYEGRTQAQTRRASALIDRP [S7E], with 3.63; and GSKFRYCGRTQAQTRRASALIDRP [S7C], with 2.1; and GSKFRYHGRTQAQTRRASALIDRP [S7H], with 2.94.
Then GSKFRYVGRTQAQTRRASALIDRP [S7V], with 2.15; and GSKFRYNGRTQAQTRRASALIDRP [S7N], with 3.05.
For the variant GSKFRYSGRTQAQTRTASALIDRP [R16T], the protein stability index came to 3.4.
As to GSKFRYSGRTQAQTRQASALIDRP [R16Q], the protein stability index was 3.31.
Then GSKFRYSGRTQAQTRAASALIDRP [R16A], with 2.63; and GSKFRYSGRTQAQTRPASALIDRP [R16P], with 3.15.
For the variant GSKFRYSGRTQAQTRYASALIDRP [R16Y], the protein stability index is 2.78.
For GSKFRYSGRTQAQTRGASALIDRP [R16G] the value was 3.87; for GSKFRYSGRTQAQTRVASALIDRP [R16V], 2.34; for GSKFRYSGRTQAQTRMASALIDRP [R16M], 2.67.
Then GSKFRYSGRTQAQTRRAPALIDRP [S18P], with 3.73; and GSKFRYSGRTQAQTRRAQALIDRP [S18Q], with 3.19; and GSKFRYSGRTQAQTRRAVALIDRP [S18V], with 2.85.
Then GSKFRYSGRTQAQTRRADALIDRP [S18D], with 3.52.
Take GSKFRYSGRTQAQTRRAYALIDRP [S18Y]: the protein stability index was 2.27.
Consider GSKFRYSGRTQAQTRRACALIDRP [S18C], for which the protein stability index turned out to be 2.5.
On to GSKFRYSGRTQAQTRRAFALIDRP [S18F], for which the protein stability index stood at 2.16.
For GSKFRYSGRTQAQTRRAIALIDRP [S18I] the value was 2.7; for GSKFRYSGRTQAQTRRAEALIDRP [S18E], 3.62; for GSKFRYSGRTQAQTRRAGALIDRP [S18G], 3.54.
For GSKFRYSGRTQAQTRRATALIDRP [S18T] the value was 2.29; for GSKFRYSGRTQAQTRRDSALIDRP [A17D], 3.41.
As for GSKFRYSGRTQAQTRRNSALIDRP [A17N], the protein stability index was 3.19.
With GSKFRYSGRTQAQTRRRSALIDRP [A17R], the protein stability index was 3.25.
As for GSKFRYSGRTQAQTRRKSALIDRP [A17K], the protein stability index was 3.16.
As to GSKFRYSGRTQAQTRRVSALIDRP [A17V], the protein stability index came to 2.66.
For GSKFRYSGRTQAQTRRWSALIDRP [A17W] the value was 2.21; for GSKFRYSGRTQAQTRRTSALIDRP [A17T], 2.99.
Regarding GSKFAYSGRTQAQTRRASALIDRP [R5A], the protein stability index is 3.49.
On to GSKFEYSGRTQAQTRRASALIDRP [R5E], for which the protein stability index was determined as 4.08.
As for GSKFGYSGRTQAQTRRASALIDRP [R5G], the protein stability index is 3.8.
GSKFLYSGRTQAQTRRASALIDRP [R5L]: the protein stability index is 2.71.
Then GSKFMYSGRTQAQTRRASALIDRP [R5M], with 4.43; and GSKFPYSGRTQAQTRRASALIDRP [R5P], with 3.27.
For GSKFIYSGRTQAQTRRASALIDRP [R5I] the value was 3.07; for GSKFTYSGRTQAQTRRASALIDRP [R5T], 3.59.
Then GSKFDYSGRTQAQTRRASALIDRP [R5D], with 3.74; and GSKFRYSPRTQAQTRRASALIDRP [G8P], with 3.43.
On to GSKFRYSERTQAQTRRASALIDRP [G8E], for which the protein stability index stood at 3.52.
For GSKFRYSLRTQAQTRRASALIDRP [G8L] the value was 3.44; for GSKFRYSNRTQAQTRRASALIDRP [G8N], 3.13; for GSKFRYSIRTQAQTRRASALIDRP [G8I], 2.93.
Then GSKFRYSHRTQAQTRRASALIDRP [G8H], with 2.95; and GSKFRYSYRTQAQTRRASALIDRP [G8Y], with 2.7.
Then GSKFRYSVRTQAQTRRASALIDRP [G8V], with 3.07.
As to GSKFRYSQRTQAQTRRASALIDRP [G8Q], the protein stability index came out at 3.39.
For GSWFRYSGRTQAQTRRASALIDRP [K3W] the value was 2.46.
Then GSGFRYSGRTQAQTRRASALIDRP [K3G], with 1.94; and GSLFRYSGRTQAQTRRASALIDRP [K3L], with 2.92.
GSYFRYSGRTQAQTRRASALIDRP [K3Y]: the protein stability index came out at 1.89.
Regarding GSVFRYSGRTQAQTRRASALIDRP [K3V], the protein stability index came out at 2.33.
For GSIFRYSGRTQAQTRRASALIDRP [K3I] the value was 2.67.
In the case of GSCFRYSGRTQAQTRRASALIDRP [K3C], the protein stability index is 1.75.
Then GSKFRYSGRTQANTRRASALIDRP [Q13N], with 3.39; and GSKFRYSGRTQAETRRASALIDRP [Q13E], with 3.27; and GSKFRYSGRTQATTRRASALIDRP [Q13T], with 2.73.
For GSKFRYSGRTQAITRRASALIDRP [Q13I] the value was 2.9; for GSKFRYSGRTQACTRRASALIDRP [Q13C], 2.98; for GSKFRYSGRTQAHTRRASALIDRP [Q13H], 2.65.
As to GSKFRYSGRTQAKTRRASALIDRP [Q13K], the protein stability index amounted to 3.19.
Then GSKFRYSGRTQAWTRRASALIDRP [Q13W], with 1.97; and GSKFRYSGRTQALTRRASALIDRP [Q13L], with 2.91; and GSKFRYSGRTQAYTRRASALIDRP [Q13Y], with 2.46.
Then GSKFRYSGRTQAQTRRASADIDRP [L20D], with 3.84; and GSKFRYSGRTQAQTRRASAEIDRP [L20E], with 3.89.
With GSKFRYSGRTQAQTRRASARIDRP [L20R], the protein stability index amounted to 3.28.
Regarding GSKFRYSGRTQAQTRRASATIDRP [L20T], the protein stability index came out at 3.62.
For the variant GSKFRYSGRTQAQTRRASAKIDRP [L20K], the protein stability index turned out to be 3.79.
For GSKFRYSGRTQAQTRRASAMIDRP [L20M] the value was 3.59.
For GSKFRYSGRTQAQTRRASALICRP [D22C] the value was 2.99; for GSKFRYSGRTQAQTRRASALIHRP [D22H], 3.7; for GSKFRYSGRTQAQTRRASALIYRP [D22Y], 2.29.
As for GSKFRYSGRTQAQTRRASALIIRP [D22I], the protein stability index came out at 2.83.
For GSKFRYSGRTQAQTRRASALITRP [D22T], the protein stability index stood at 3.02.
Take GSKFRYSGRTQAQTRRASALIQRP [D22Q]: the protein stability index amounted to 3.54.
Then GSKFRYSGRTQAQTRRASALIGRP [D22G], with 2.67; and GSKFRYSGRTQAQTRRASALIERP [D22E], with 3.72.
